Experimental data as given in patent US20220127334A1.

Columns and labels:
[1] = biological target: Human pancreatic trypsin (Athens Research & Technology, Inc) (human) (UniProt P07477); assay: cell-based or functional assay
[2] = biological target: trypsin (Examples 7 and 8, source not stated); assay: cell-based or functional assay

Substance: human UTI (human urine UTI) (from UniProt P02760 206-352)
- IC50 of trypsin inhibition (fluorogenic substrate, enzyme activity) [1]: 3 nM
- IC50 of inhibition of trypsin-induced IL-6 production in BEAS2B cells [2]: 0.4 µg/mL
